Assays:
Type in all cases: biochemical
[1] = Hydrolysis of 4-methylumbelliferyl-β-D-fucoside, initial rates; conditions: 4-MUFuc, 80° C., pH 6.5
Description: (§1) Parameters were determined by the method of initial rates. Activity was measured in time course assays of the hydrolysis of 4-methylumbelliferyl-β-D-glycosides (β-D-gluco, β-D-galacto, β-D-fuco, β-D-manno, β-D-xylo, β-D-glucurono) at 5-15 concentrations (0.001-1.5 mM) incubated at 80° C. in 50 mM sodium phosphate buffer, pH 6.5. Reactions were terminated at 2, 5, 10, 15 min by the addition of 100 μl of ice cold 1M NazCO3, pH 10 and analyzed (Labsystems Fluoroscan Ascent plate reader, […]). KM and kcat were derived by fitting the initial rates to hyperbolic Michaelis-Menten curves using GraFit 4 (Erithacus Software Ltd, Staines, UK).
(§2) Determination of the Michaelis-Menten parameters for the WT and mutant enzymes was performed at pH 6.5 at 80° C. for a broad range of representative, fluorophore-containing 4-methylumbelliferyl glycoside substrates, which allowed activities to be determined with a high degree of sensitivity (Table). Under these optimized assay conditions, the glucoside (Glc), galactoside (Gal) and fucoside (Fuc) substrates were hydrolysed well by SSβG-WT, but the xyloside (Xyl) substrate was hydrolysed relatively poorly (approx. 3% of turnover as determined by kcat compared with β-D-glucoside). […] In all cases the absolute D-stereospecificity and β-stereoselectivity of SSβG was maintained and no activity was detected towards L- or α-glycoside substrates.

[2] = Hydrolysis of 4-methylumbelliferyl-β-D-mannoside, initial rates; conditions: 80° C., pH 6.5
Description: as §1, §2

[3] = Parallel one-pot glycoside synthesis (transglycosylation to MeOH); conditions: 50° C., 1:9 MeOH:phosphate buffer pH 6.5
Description: Enzyme (WT, […] or E432C, 1 mg) was added to a mixed solution (1 mL) of para-nitrophenyl (pNP) β-D-manno-, galacto-, gluco- and xylo- pyranosides (0.03 mmol of each) in 1:9 MeOH:phosphate buffer (pH 6.5) and incubated at 50° C. for 45 min (WT), 4 h (WT), 8 h (W433C, E432C). After this time the solutions were extracted with EtOAc to remove para-nitrophenol and passed through short Sephadex and Celite:Graphite (1:1) columns to remove protein, pNP-glycoside and remaining para-nitrophenol. Solvent was removed and product mixtures were analysed by ^1H NMR and ESMS. Yields based on donor were calculated from integration of anomeric proton resonances in ^1H NMR (D2O, 500 MHz): α-Gal (δ 5.12, d, […]), α-Glc (δ 5.08, d, 3.8 Hz), α-Xyl (δ 5.04, d, J=3.4 Hz), α-Man (δ 5.03, d, J=1.8 Hz), β-Man (δ 4.75, s), β-Glc (δ 4.49, d, J=8.0 Hz), P-Gal (δ 4.45, d, 7.9 Hz), Me-β-Man (δ 4.44, s), β-Xyl (δ 4.42, d, J=7.8 Hz), Me-β-Glc (δ 4.23, d, J 8.1 Hz), Me-β-Xyl (δ 4.18, d, J=7.8 Hz), Me-β-Gal (δ 4.17, d, J=8.0 Hz).
Scheme 1: Parallel glycoside syntheses using SSβG-WT, -E432C and -W433C as catalysts. […] Such balanced libraries are not produced by SSβG-WT even under varying reaction times.

B1: WT: Wild type β-glycosidase from Sulfolobus solfataricus (SEQ ID NO: 2), recombinant with N-terminal His6-tag (protein, listed as Sulfolobus solfataricus)
chain: MYSFPNSFRFGWSQAGFQSEMGTPGSEDPNTDWYKWVHDPENMAAGLVSGDLPENGPGYWGNYKTFHDNAQKMGLKIARLNVEWSRIFPNPLPRPQNFDESKQDVTEVEINENELKRLDEYANKDALNHYREIFKDLKSRGLYFILNMYHWPLPLWLHDPIRVRRGDFTGPSGWLSTRTVYEFARFSAYIAWKFDDLVDEYSTMNEPNVVGGLGYVGVKSGFPPGYLSFELSRRHMYNIIQAHARAYDGIKSVSKKPVGIIYANSSFQPLTDKDMEAVEMAENDNRWWFFDAIIRGEITRGNEKIVRDDLKGRLDWIGVNYYTRTVVKRTEKGYVSLGGYGHGCERNSVSLAGLPTSDFGWEFFPEGLYDVLTKYWNRYHLYMYVTENGIADDADYQRPYYLVSHVYQVHRAINSGADVRGYLHWSLADNYEWASGFSMRFGLLKVDYNTKRLYWRPSALVYREIATNGAITDEIEHLNSVPPVKPLRH
modifications: N-terminal His6 tag
Km [1]: 11 ± 2 µM | kcat [1]: 80 ± 2 s⁻¹ | Km ([2]; 4-MUMan): 36 ± 9 µM | kcat ([2]; 4-MUMan): 1.8 ± 0.2 s⁻¹ | β-D-mannoside activity, turnover relative to β-D-glucoside [2]: approx. 1% | Yield of Products, product 1 (β-glycoside of Glc) ([3]; 45 min): 40% | Yield of Products, product 2 (β-glycoside of Gal) ([3]; 45 min): 33% | Yield of Products, product 3 (β-glycoside of Man) ([3]; 45 min): 2% | Yield of Products, product 4 (β-glycoside of Xyl) ([3]; 45 min): 3% | Yield of Products, product 5 ([3]; 45 min): 14% | Yield of Products, product 6 ([3]; 45 min): 8% | Yield of Products, product 3 (β-glycoside of Man) ([3]; 4 h): 8% | Yield of Products, product 4 (β-glycoside of Xyl) ([3]; 4 h): 20% | Yield of Products, product 5 ([3]; 4 h): 33% | Yield of Products, product 6 ([3]; 4 h): 30% | Yield of Products, product 7 ([3]; 4 h): 4% | Yield of Products, product 8 ([3]; 4 h): 5%
